Results from US10400249B2, “HPPD variants and methods of use” (priority 2014, dated 2019).
Substitutions are numbered along the chain they refer to. Numbers in names are those of the source.

B1: FLP136: PfHPPD variant P215L, E335P, G336F (protein)
chain: MADLYENPMGLMGFEFIEFASPTPGTLEPIFEIMGFTKVATHRSKNVHLYRQGEINLILNNEPNSIASYFAAEHGPSVCGMAFRVKDSQKAYNRALELGAQPIHIDTGPMELNLPAIKGIGGAPLYLIDRFGEGSSIYDIDFVYLEGVERNPVGAGLKVIDHLTHNVYRGRMVYWANFYEKLFNFREARYFDIKGEYTGLTSKAMSAPDGMIRILLNEESSKGAGQIEEFLMQFNGEGIQHVAFLTDDLVKTWDALKKIGMRFMTAPPDTYYEMLEGRLPDHGEPVDQLQARGILLDGSSVEGDKRLLLQIFSETLMGPVFFEFIQRKGDDGFGPFNFKALFESIERDQVRRGVLTAD
modifications: HPPD variant - FLP136
notes: PfHPPD variant P215L, E335P, G336F
B2: FLP202: PfHPPD variant P215L, E335P, G336F, A340E (protein)
chain: B1 chain with A340E
modifications: HPPD variant - FLP202
notes: PfHPPD variant P215L, E335P, G336F, A340E

System: Pseudomonas fluorescens HPPD protein
Assay: OD assay: HPPD activity and pI50 from HPP remaining after derivatisation with DNP
Type: biochemical
Conditions: for Activity DeltaE/24 min μg Protein: HPPD enzyme activity of the clone; for tolerance (pI50) Cmpd. 2: inhibitor Cmpd. 2; for tolerance (pI50) DKN: inhibitor diketonitrile (DKN), negative log of molar concentration; for tolerance (pI50) MST: inhibitor mesotrione (MST); for tolerance (pI50) TBT: inhibitor tembotrione (TBT)
Procedure, shortened: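 Purified Pseudomonas fluorescens HPPD, room temperature. OD assay: 50 mM Tris-HCl pH 7.8, 0.5 mM HPP, 10 mM ascorbate, catalase, 24 min, remaining HPP derivatised with DNP, read at 405 nm, inhibitor 5.0×10^−6 to 5.0×10^−4 M. HGD assay: 200 mM Tris-HCl pH 7.6, 600 μM HPP, 20 μM FeSO4, coupled HGA dioxygenase, initial rates at 318 nm, inhibitor ≤100 μM, time-course gives inhibition type; pI50 from 4-parameter fits.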

Row | Molecule | Activity DeltaE/24 min μg Protein [DeltaE/24 min μg Protein] | tolerance (pI50) Cmpd. 2 | tolerance (pI50) DKN | tolerance (pI50) MST | tolerance (pI50) TBT
1 | B1 | 0.09 | 4.8 | 2.6 | 3.3 | 4.7
2 | B2 | 0.09 | 4.5 | <2.5 | <2.5 | 3.6
